Here are results for two molecules from US20240240209A1, “SYNTHESIS OF ENANTIOPURE CIS-A-IRONE FROM A RENEWABLE CARBON SOURCE” (Agency for Science, Technology and Research, priority 2021, published 2024).

The nature of data set [1]: In vivo cis-α-irone production from glucose/glycerol in strain 2O31 cultures. The data set is classed as cell-based, Escherichia coli. To be noted: pMT plasmid transformed into strain 2O31; 2 days. The text has this: The advantage of in vivo biotransformation is that microbial cells can regenerate expensive co-factors rendering the scale-up bioprocess more cost-effective. […] Thus, pMT was incorporated into our psi-ionone producing microbe^7,8, to synthesize cis-α-irone from cheap renewable carbon sources (glucose/glycerol) (FIG. 4 and FIG. 19). To achieve high productivity, the psi-ionone production was first optimized by multidimensional heuristic process (MHP)^15, and strain 2O31 was identified to be the highest producer for psi-ionone (FIG. 19b). 2O31 was used as the base strain to probe cis-α-irone production in vivo (Table 5). Moreover, to improve the plasmid stability, auxotrophic strain was used with chemically defined media^1. The plasmid carrying pMT1, pMT7 or pMT10 was transformed into the strain 2O31, and produced less than 0.01, about 2 and about 3 mg/L cis-α-irone respectively in 2 days (FIG. 19d). To further optimize irone production with pMT10, three different culture conditions were tested: no methionine or dodecane added (control); 10 mM methionine added; 10 mM methionine and 20% dodecane added. In the control reaction, approximately 4.8 mg/L or 0.85 mg/L/OD cis-α-irone was produced after 3-day incubation (2O31-pMT10, FIGS. 4c and 4e). […] Lastly, when both methionine and dodecane were added, psi-ionone was accumulated in the organic layer and only ˜0.3 mg/L or ˜0.05 mg/L/OD cis-α-irone was produced (2O31-pMT10, FIGS. 4c, d and e). […] The limited methylation efficiency might be due to insufficient cofactor or SAH inhibition. […] In fact, the total amount of psi-ionone and cis-α-irone decreased (FIG. 4c, and d). As SAM biosynthesis is regulated by metJ in E. coli^16,17, the aforementioned six reactions were subsequently examined under metJ deleted genetic background (2O31, ΔmetJ). An increase in cis-α-irone titer to ˜5.7 mg/L was produced by 2O31 ΔmetJ-pMT10 strain with 10 mM methionine supplementation (FIG. 4c). An increase in specific cis-α-irone titer to ˜1.2 mg/L/OD was produced by 2O31 ΔmetJ-pMT10r strain without methionine supplementation (FIG. 4d). […]

A short description of data set [2]: Stability of pMT7 (native PAGE, pre-incubation at 28° C.). The following applies: incubating or reacting at 28° C. overnight. As for the experimental part: (28 C) or 4° C. (4 C). […] All the data shown is an average of replicate reaction.
The steady-state kinetic parameters of pMT7 were determined (Table 3). […] While determining the steady-state kinetics of pMT7, it was noticed that the reaction with purified pMT7 stopped at 6 h before significant conversion had taken place (FIG. 15a). Moreover, while using cell extracts containing pMT7, the reaction reached a plateau after 1-day incubation (FIG. 15b). […] Since pMT7 is an hexamer in solution^10, its oligomeric state before and after the reaction was examined. […] (28 C) overnight as compared to 4° C. […] It was further tested if the enzyme was subject to feedback inhibition, as the cofactor product SAH is a potent inhibitor of methyltransferases^12.

Entries after “also recorded” stand apart in the source; their conditions may differ.

B1: pMT7: pMT1 with Y200F S182E L273V L180A A202L Y65F (protein)
chain: MPQEARTPQQQVTADEVGDWYDKFGEVYHLTLGESVHCGLWFPPDAPVPQDMELVTMSSQAQDRFTDYLIETLDPKAGQHLLDIGCGTGRTALKAARQRGIAVTGVAVSKEQIAAANRLAAGHGLTERLTFEVADAMRLPYEDESFDCAWAIESLCHMDRAKALGEAWRVLKPGGDLLVAEEVVTEELTEPETALFETLFALNVPPRLGEFFDIVSGAGFHTLSLKDLSANLAMTMNVFALGVYSRRAEFTERFGAEFVDGLLAGLGSAQETVIRKTRFFMATLRKPAV
modifications: Modified from pMT1
notes: pMT1 with Y200F S182E L273V L180A A202L Y65F
Consider B1, for which the cis-α-irone produced result in data set [1] was “about 2 mg/L”. Moreover, the stability of enzyme entry in data set [2] is recorded as “remained intact as hexamer; also recorded: stable under the reaction temperature”.

B2: pMT10: pMT1 with Y200F S182E L273V L180A A202L Y65F C156A T91P (protein)
chain: MPQEARTPQQQVTADEVGDWYDKFGEVYHLTLGESVHCGLWFPPDAPVPQDMELVTMSSQAQDRFTDYLIETLDPKAGQHLLDIGCGTGRPALKAARQRGIAVTGVAVSKEQIAAANRLAAGHGLTERLTFEVADAMRLPYEDESFDCAWAIESLAHMDRAKALGEAWRVLKPGGDLLVAEEVVTEELTEPETALFETLFALNVPPRLGEFFDIVSGAGFHTLSLKDLSANLAMTMNVFALGVYSRRAEFTERFGAEFVDGLLAGLGSAQETVIRKTRFFMATLRKPAV
modifications: Modified from pMT1
notes: pMT1 with Y200F S182E L273V L180A A202L Y65F C156A T91P
Take B2: the cis-α-irone produced result in data set [1] is reported as “about 3 mg/L”.
